Each block holds one molecule with its values, some of them ahead of it.
What was measured:
[1] = biological target: M3+TE (module 3 of 6-deoxyerythronolide B synthase fused to the TE domain) (Saccharopolyspora erythraea); assay: SEC-SAXS
[2] = biological target: KSAT3+KR3 (module 3 of 6-deoxyerythronolide B synthase without the ACP domain) (Saccharopolyspora erythraea); assay: SEC
[3] = biological target: KSAT3+KR3 (module 3 of 6-deoxyerythronolide B synthase without the ACP domain) (Saccharopolyspora erythraea); assay: SEC-SAXS
[4] = biological target: DEBS3 (6-deoxyerythronolide B synthase 3; modules 5 and 6 and the TE domain) (Saccharopolyspora erythraea) (UniProt Q03133); assay: SEC-SAXS
SEC-SAXS = biological target: the molecule itself; assay: SEC-SAXS

stoichiometry N [1]: 2
Molecule: M3+TE (module 3 of 6-deoxyerythronolide B synthase fused to the TE domain) (enzyme)

stoichiometry N [2]: 2
stoichiometry N [3]: 2
Molecule: KSAT3+KR3 (module 3 of 6-deoxyerythronolide B synthase without the ACP domain) (domain or fragment)

stoichiometry N [4]: 2
Molecule: DEBS3 (6-deoxyerythronolide B synthase 3; modules 5 and 6 and the TE domain), Q03133 1-3172

B1: TE (terminal thioesterase domain of 6-deoxyerythronolide B synthase) (domain or fragment, Saccharopolyspora erythraea)
chain: QLDSGTPAREASSALRDGYRQAGVSGRVRSYLDLLAGLSDFREHFDGSDGFSLDLVDMADGPGEVTVICCAGTAAISGPHEFTRLAGALRGIAPVRAVPQPGYEEGEPLPSSMAAVAAVQADAVIRTQGDKPFVVAGHSAGALMAYALATELLDRGHPPRGVVLIDVYPPGHQDAMNAWLEELTATLFDRETVRMDDTRLTALGAYDRLTGQWRPRETGLPTLLVSAGEPMGPWPDDSWKPTWPFEHDTVAVPGDHFTMVQEHADAIARHIDAWLGGGNS
stoichiometry N (SEC-SAXS): 2

Reference: PMC4284093 (Journal of molecular biology, 2014)
